Results as given in paper PMC6143433 (Biochemistry, 2018).

Biological target: the molecule itself
Assay: SEC

B1: MftE from M. ulcerans (enzyme, UniProt A0PM51 1-250, looked up)
chain: MNSSYHRRVPVLGELGTSTSSQLPSTWPSILIPLGSTEQHGPHLPLDTDTRIATAVGRAVATRMHGRLTQCQPGWLLAPPIAYGASGEHQSFAGTISIGAEALRVLLLEYGRSAACWADRLVFVNGHGGNVEALRGAVRQLRAEGRDAGWSACGSAGGDAHAGHTETSVLLHISPEVVLTDRLSAGNAAPLAELLPSLRRGGVAAVSPIGVLGDPTTATAVEGRRIFAEMVDDCVSRIARWTPGPDGMLT
stoichiometry N: 8
